In US20090136500A1 (CISTHERA, published 2009):

Columns and labels:
mouse PAI-1 = target: T1, mouse PAI-1 (mouse, UniProt P22777 23-402, limits assumed, n-terminal biotin label (in the P-ELISA)); test: P-ELISA
T1 construct: also called murine PAI-1
T1 sequence (looked up): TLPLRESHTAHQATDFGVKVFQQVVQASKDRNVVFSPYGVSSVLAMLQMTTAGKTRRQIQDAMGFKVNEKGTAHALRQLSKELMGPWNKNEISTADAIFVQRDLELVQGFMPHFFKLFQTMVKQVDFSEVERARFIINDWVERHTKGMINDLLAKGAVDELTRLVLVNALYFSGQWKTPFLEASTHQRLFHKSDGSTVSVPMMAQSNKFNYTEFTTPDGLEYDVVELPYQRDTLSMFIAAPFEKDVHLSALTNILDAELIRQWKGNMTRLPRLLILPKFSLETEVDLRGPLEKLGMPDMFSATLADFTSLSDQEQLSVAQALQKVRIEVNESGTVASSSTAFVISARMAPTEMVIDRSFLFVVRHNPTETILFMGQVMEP

[1] = target: T2, PAI-1 (antigen of Example 11, species not stated); test: SPR-type biosensor, antibody captured on anti-human IgG surface at 5 densities, 25 C, global 1:1 fit
T2 construct: Its method text reads as if hP-1 and mP-1 were the antigens run over captured antibody, that is human and mouse PAI-1
T2 sequence (P05121 24-402): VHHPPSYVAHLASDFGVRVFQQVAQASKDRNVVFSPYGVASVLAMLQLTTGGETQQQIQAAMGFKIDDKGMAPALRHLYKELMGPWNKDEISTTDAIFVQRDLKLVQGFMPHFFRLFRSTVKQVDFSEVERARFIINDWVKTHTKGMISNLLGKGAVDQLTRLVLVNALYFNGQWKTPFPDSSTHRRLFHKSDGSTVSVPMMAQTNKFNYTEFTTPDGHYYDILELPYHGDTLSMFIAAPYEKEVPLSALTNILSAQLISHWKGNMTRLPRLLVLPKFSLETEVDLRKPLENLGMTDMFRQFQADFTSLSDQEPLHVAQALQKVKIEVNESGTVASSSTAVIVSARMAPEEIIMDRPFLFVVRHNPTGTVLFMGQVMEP
Procedure: This experiment was conducted to measure the binding constants for hP-1 (humanized mAb CT140) and mP-1 (mouse antibody 33B8).
hP-1 was captured onto an anti-human IgG surface (Cat-tag goat mAb) at 5 different surface densities. hP-1 and mP-1 were diluted to a starting concentration of 100 nM and tested in a 3-fold dilution series using PBS with 0.005% Tween-20 and 0.1 mg/ml BSA. Binding data were collected at 25° C. The association phase was monitored for 5 minutes and the dissociation phase was monitored for 2.5 hours. The response data for each antigen over the 5 different density mAb surfaces were globally fit to a simple 1:1 interaction model. A fit to the data was determined (data not shown) a binding constants were determined at 25° C.

rat PAI-1 = target: T3, rat PAI-1 (rat, UniProt P20961 24-402, n-terminal biotin label (in the P-ELISA)); test: P-ELISA: biotin-labeled PAI-1 on streptavidin/Neutravidin coated wells, HRP-conjugated secondary antibody, O.D. 450. Target taken from the title printed in the panel; the legend paragraph 67 names FIG. 12C as mouse
T3 sequence (looked up): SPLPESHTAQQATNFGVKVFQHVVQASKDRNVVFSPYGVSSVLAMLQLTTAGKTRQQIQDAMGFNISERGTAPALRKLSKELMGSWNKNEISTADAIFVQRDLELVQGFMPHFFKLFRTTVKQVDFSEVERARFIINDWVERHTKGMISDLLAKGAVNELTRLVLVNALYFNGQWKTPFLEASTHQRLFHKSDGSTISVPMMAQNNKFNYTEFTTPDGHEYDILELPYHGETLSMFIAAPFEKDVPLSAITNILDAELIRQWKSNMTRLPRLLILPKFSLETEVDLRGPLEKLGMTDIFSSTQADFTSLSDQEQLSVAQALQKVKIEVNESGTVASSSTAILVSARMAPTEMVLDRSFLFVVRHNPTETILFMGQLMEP
Procedure: All reagents are brought to room temperature (18-23° C.) and dilutions are made in Wash Buffer (1×TBS, 0.1% BSA, 0.05% Tween). Briefly, protocol steps are as follows: [0546] Add 100 μL of Neutravidin™ Pierce#31000 (0.5 μg/ml in TBS) to 96-well Immulon-4 plates. Incubate 1 hour at room temperature (RT). [0547] Wash wells 3 times with 200 μl Wash Buffer. [0548] Add 50 μL of biotinylated biomolecule (0.06 nM) Incubate 1 hour at RT. [0549] Wash plate 3 times in Wash Buffer. [0550] Add 100 μL of 1° Ab Incubate 30 min RT [0551] Wash plate 3 times in Wash Buffer. [0552] Add 50 μL of […] (1:10,000) Incubate 30 min RT [0553] Wash plate 4 times in Wash Buffer. [0554] Add 100 μl TMB Reagent (substrate). Incubate at room temperature. [0555] Add 100 μL of 2 M Sulfuric Acid to stop development of the substrate. [0556] Plates were read using a […] filter with a 615-620 nm filter as the reference.
Binding of CT140 to rat, mouse, rabbit and human PAI-1 was determined by P-ELISA (see FIG. 12). The relative affinity of CT140 is human=rabbit>mouse>rat (FIG. 12A, FIG. 12B, FIG. 12C and FIG. 12D, respectively).

B1: CT140 (humanized version of murine monoclonal antibody 33B8, IgG4 with the hinge of IgG1) (antibody, V domains shown)
VH: QVQLVQSGAEVKKPGASVKVSCKASGYTFTNYGMNWVRQAPGQGLEWMGWINTYTGEPTYTDDFKGRFTMTLDTSISTAYMELSRLRSDDTAVYYCAKDVSGFVFDYWGQGTLVTVSS
VL: DIVMTQSPDSLAVSLGERATINCKSSQSLLNIIKQKNCLAWYQQKPGQPPKLLIYWASTRESGVPDRFSGSGSGTDFTLTISSLQAEDVAVYYCQQYYSYPYTFGQGTKLEIKR
notes: also called hP-1; humanized mAb CT140
fold greater affinity relative to the parent mouse anti-PAI-1 (mouse PAI-1): > 10 fold
Kd [1]: 0.015 nM
koff [1]: 8e-06 s⁻¹
kon [1]: 530000 M⁻¹ s⁻¹
binding result (rat PAI-1): binds
